The chains are these.
B1: E12A VNAR-hFc fusion (Fc fusion)
chain: ARVDQTPQTIAREEGESVTINCVVRDSNRALASTSWCSEKYVSTREESISKGGRYVETVNSGSKSFSLRINDLTVEDSGTYRCNVYFFPSFEVDVLQTNDVYGDGTAVTVNA
notes: Bivalent VNAR-Fc, VNAR N-terminal to human IgG1 Fc; Expi293; not shown: human IgG1 Fc (hinge, CH2, CH3) of vector pFUSE-hIgG1e3-Fc2
B2: F11 VNAR-hFc fusion (Fc fusion)
chain: ARVDQTPQTITKEEGESLTINCVLRGEFYALASTSWYRKKSGSTREETISKGGRYVETVNSGSKSFSLRINDLTVEDSGTYRCNVYGYRIFSPEVKGPNDVYGDGTAVTVNA
notes: as for B1
B3: F12 VNAR-hFc fusion (Fc fusion)
chain: ARVDQTPQTITKEEGESLTINCVLRVHGRALASTSWYRKKSGSTREETISKGGRYVETVNSGSKSFSLRINDLTVEDSGTYRCNVYGLSFGDIEGVKKIDVYGDGTAVTVNA
notes: Bivalent VNAR-Fc, VNAR N-terminal to human IgG1 Fc; Expi293; also called F12-hFc; clone F12; not shown: human IgG1 Fc (hinge, CH2, CH3) of vector pFUSE-hIgG1e3-Fc2
B4: H12 VNAR-hFc fusion (Fc fusion)
chain: B3 chain with R29C, G91V
notes: as for B1
B5: F1 VNAR-hFc fusion (Fc fusion)
chain: B3 chain with F90S
notes: Bivalent VNAR-Fc, VNAR N-terminal to human IgG1 Fc; Expi293; also called Fl; not shown: human IgG1 Fc (hinge, CH2, CH3) of vector pFUSE-hIgG1e3-Fc2
B6: H7A VNAR-hFc fusion (Fc fusion)
chain: PGVDQTEQTIKKEEGESVTIKCVMRVKYPALASTSRYRKKSGSREETISKGGRYVETVNYSSKSISVRINDMTVEDSGRYRCNVYEEYAVDCDALVYQDVYGDGTAVTVNA
notes: as for B1
B7: G3 VNAR-hFc fusion (Fc fusion)
chain: ARVDQTPQTITKETGESLTINCVLRDNNCALSTTYWYRKKSGSTNEENISKGGRYVETVNSGSKSFSLRINDLTVEDSGTYRCKVHFFPSFCNSTSIRSVDVYGGGTVVTVNA
notes: as for B1
B8: G10 VNAR-hFc fusion (Fc fusion)
chain: ARVDQTPQTITKETGESLTINCVLRDSNCALSSTYWYRKKSGSTNEENISKGGRYVETVNSGSKSFSLKINDLTVEDSGTYRCKVVFKLFSGRACAGEKDVYGGGTVVTVNA
notes: as for B1
B9: H8 VNAR-hFc fusion (Fc fusion)
chain: ARVDQTPQTITKETGESLTINCVLRDSNCALPSTYWYRKKSGSTNEESISKGGRYVETVNSGSKSFSLRINDLVVEDSGTYRCKVGNYCIRLCYDMKFAVDVYGGGTAVTVNA
notes: as for B1
B10: B12 VNAR-hFc fusion (Fc fusion)
chain: ARVDQTPRSVTKETGESLTINCVLRDASYALGSTCWYRKKSGSTNEESISKGGRYVETVNSGSKSFSLRINDLTVEDGGTYRCGVARGWRTLNYLCDVRTGEWSCVWRAAACGDGTAVTVNA
notes: as for B1
B11: E12 VNAR-hFc fusion (Fc fusion)
chain: ARVDQTPQTITKEEGESLTINCVLRTQDPALASTSWYRKKSGSTREETISKGGRYVETVNSGSKSFSLRINDLTVEDSGTYRCNVYFLLAPTKTKLQGIDVYGDGTAVTVNA
notes: as for B1
B12: G6 VNAR-hFc fusion (Fc fusion)
chain: ARVDQTPQTITKEEGESLTINCVLRVETRALASTSWYRKKSGSTREETISKGGRYVETVNSGSKSFSLRINDLTVEDSGTYRCNVYIRHYSEFTQAPFRDVYGDGTAVTVNA
notes: as for B1
B13: H7 VNAR-hFc fusion (Fc fusion)
chain: ARVDQTPQTITKEEGESLTINCVLRYNNPALASTSWYRKKSGSTREETISKGGRYVETVNSGSKSFSLRINDLTVEDSGTYRCNVYFFPSFLVDKLQSHDVYGDGTAVTVNA
notes: as for B1
B14: D1 VNAR-hFc fusion (Fc fusion)
chain: ARVDQTPQTITKEEGESLTINCVLRHNYSALASTSWYRKKSGSTREETISKGGRYVETVNSGSKSFSLRINDLTVEDSGTYRCNVYGISFIEEKIRYDFDVYGDGTAVTVNA
notes: Bivalent VNAR-Fc, VNAR N-terminal to human IgG1 Fc; Expi293; also called D1-hFc; not shown: human IgG1 Fc (hinge, CH2, CH3) of vector pFUSE-hIgG1e3-Fc2
B15: H6 VNAR-hFc fusion (Fc fusion)
chain: ARVDQTPQTITKEEGESLTINCVLRTHSNALASTSWYRKKSGSTREETISKGGRYVETVNSGSKSFSLRINDLTVEDSGTYRCNVYAFLEIQPNIYHEFDVYGDGTAVTVNA
notes: as for B1
B16: A8 VNAR-hFc fusion (Fc fusion)
chain: ARVDQTPQTITKEEGESLTINCVLRRNFQLASTSWYRKKSGSTREETISKGGRYVETVNSGSKSFSLRINDLTVEDSGTYRCNVYGFVEFAKNIVEFIDVYGDGTAVTVNA
notes: as for B1
B17: G12 VNAR-hFc fusion (Fc fusion)
chain: ARVDQTPQTITKETGESLTINCVLRDSNCALSSTYWYRKKSGSTNEALISKGGRYVETVNSGSKSFSLRINDLTVEDSGTYRCNVVQDLRDDCFFRDVYGGGTAVTVNA
notes: as for B1
B18: C6 VNAR-hFc fusion (Fc fusion)
chain: B17 chain with Q87Y
notes: as for B1

The EC50 is the concentration at which the effect is half-maximal.

Residue numbers refer to the chain shown, from its start. Names may count otherwise.

The first experiment deals with T1, human serum albumin (human, UniProt P02768 25-609).
T1 construct: Negative control antigen in ELISA; also called HSA
T1 sequence (P02768 25-609 limits assumed): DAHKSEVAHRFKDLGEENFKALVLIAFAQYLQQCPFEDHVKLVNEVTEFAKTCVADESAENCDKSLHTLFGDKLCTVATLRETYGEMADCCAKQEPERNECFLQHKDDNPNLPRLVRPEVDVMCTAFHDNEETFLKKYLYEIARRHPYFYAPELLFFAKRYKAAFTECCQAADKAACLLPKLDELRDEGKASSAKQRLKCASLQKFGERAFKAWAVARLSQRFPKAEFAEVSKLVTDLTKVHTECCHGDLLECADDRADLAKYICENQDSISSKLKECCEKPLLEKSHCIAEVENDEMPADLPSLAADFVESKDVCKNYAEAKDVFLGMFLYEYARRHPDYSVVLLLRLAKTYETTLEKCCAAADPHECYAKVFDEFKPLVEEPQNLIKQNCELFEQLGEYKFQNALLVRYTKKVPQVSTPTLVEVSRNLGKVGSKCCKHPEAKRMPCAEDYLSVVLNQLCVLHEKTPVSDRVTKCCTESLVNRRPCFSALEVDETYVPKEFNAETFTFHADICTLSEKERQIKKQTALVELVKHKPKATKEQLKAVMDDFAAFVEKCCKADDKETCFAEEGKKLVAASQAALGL
As to the kind of experiment: ELISA, VNAR-hFc in Expi293 medium on coated HSA (negative control). From the text:
The clones were reformatted as bivalent VNAR-Fc by cloning the VNARs into the commercial pFUSE vector (pFUSE-hIgG1e3-Fc2). The Fc region of the protein contained CH2 and CH3 domains with the hinge that served as a flexible spacer between the two parts of the Fc-fusion protein. N-termini of the construct contained the IL2 signal sequence to allow secretion. A HEK Expi293 expression system was used to transiently express the proteins. The VNAR clones were expressed as Fc formats in mammalian cells in small (1 ml) scale in 96-well plates. Media was collected and used directly for ELISA in order to confirm binding to the ectodomain of mouse and human CD98hc. Human serum albumin was used as the negative control.
For B1, the “Binding [relative units]” value was 0.063 relative units.
Turning to B2, the “Binding [relative units]” value was determined as 0.072 relative units.
As for B3, the “Binding [relative units]” value worked out at 0.112 relative units.
On to B4, for which the “Binding [relative units]” value was determined as 0.055 relative units.
Consider B5, for which the “Binding [relative units]” value stood at 0.073 relative units.
Consider B6, for which the “Binding [relative units]” value was 0.054 relative units.
Turning to B7, the “Binding [relative units]” value was found to be 0.053 relative units.
As to B8, the “Binding [relative units]” value is 0.051 relative units.
On to B9, for which the “Binding [relative units]” value worked out at 0.059 relative units.
Turning to B10, the “Binding [relative units]” value came out at 0.081 relative units.
B11: the “Binding [relative units]” value was 0.056 relative units.
Regarding B12, the “Binding [relative units]” value came to 0.052 relative units.
Take B13: the “Binding [relative units]” value is 0.072 relative units.
Take B14: the “Binding [relative units]” value amounted to 0.074 relative units.
On to B15, for which the “Binding [relative units]” value was 0.06 relative units.
On the same count and under the same terms, the same measure for B16: 0.065 relative units; for B17: 0.054 relative units; for B18: 0.052 relative units.

The target of a further experiment is mouse CD98hc ectodomain (recombinant) (mouse) (UniProt P10852). As to the kind of experiment: ELISA, VNAR-hFc in Expi293 medium on coated ectodomain. (In general: In an ELISA, binding on a coated surface is turned into a signal by an enzyme label.)
Sequence of mouse CD98hc ectodomain (recombinant) (mouse) (P10852 100-526): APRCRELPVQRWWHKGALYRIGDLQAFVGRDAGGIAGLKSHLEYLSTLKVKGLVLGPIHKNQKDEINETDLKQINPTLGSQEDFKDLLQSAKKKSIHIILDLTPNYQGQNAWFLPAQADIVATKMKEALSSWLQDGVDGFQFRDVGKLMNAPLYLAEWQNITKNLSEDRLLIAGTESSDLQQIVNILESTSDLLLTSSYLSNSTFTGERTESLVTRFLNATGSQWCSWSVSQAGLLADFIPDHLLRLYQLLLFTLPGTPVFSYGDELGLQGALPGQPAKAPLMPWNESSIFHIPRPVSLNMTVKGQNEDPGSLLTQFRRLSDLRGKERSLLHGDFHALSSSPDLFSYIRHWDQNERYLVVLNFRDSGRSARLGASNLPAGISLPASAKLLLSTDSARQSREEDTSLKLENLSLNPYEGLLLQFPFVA
Consider B1, for which the Binding [relative units] (relative units) worked out at 0.065.
On the same count and under the same terms, the same measure for B2: 0.096; for B3: 0.563.
B4: the Binding [relative units] (relative units) amounted to 0.045.
For B5, the Binding [relative units] (relative units) was 0.115.
Regarding B6, the Binding [relative units] (relative units) was found to be 0.043.
Same read-out and setting: for B7 the value was 0.041; for B8, 0.041.
Regarding B9, the Binding [relative units] (relative units) was 0.049.
Regarding B10, the Binding [relative units] (relative units) is 0.084.
Regarding B11, the Binding [relative units] (relative units) amounted to 0.078.
As to B12, the Binding [relative units] (relative units) came to 0.041.
In the case of B13, the Binding [relative units] (relative units) was 0.108.
For B14, the Binding [relative units] (relative units) is 0.417.
Regarding B15, the Binding [relative units] (relative units) is 0.186.
On to B16, for which the Binding [relative units] (relative units) came to 0.135.
B17: the Binding [relative units] (relative units) is 0.044.
Same read-out and setting: for B18 the value was 0.042.

Another experiment addresses human CD98hc ectodomain (recombinant) (human) (UniProt P08195). The experiment is described as above.
Consider B1, for which the Binding [relative units] (relative units) amounted to 0.049.
Still for that read-out and setting: the same measure for B2: 3.03; for B3: 3.99.
For the molecule B4, the Binding [relative units] (relative units) is 0.046.
On to B5, for which the Binding [relative units] (relative units) came out at 3.76.
As to B6, the Binding [relative units] (relative units) came out at 0.043.
Turning to B7, the Binding [relative units] (relative units) stood at 1.48.
As for B8, the Binding [relative units] (relative units) turned out to be 0.043.
Regarding B9, the Binding [relative units] (relative units) is 0.048.
On the same count and under the same terms, the same measure for B10: 0.076; for B11: 2.19.
Same read-out and setting: the same measure for B12: 0.042.
As to B13, the Binding [relative units] (relative units) stood at 3.93.
Take B14: the Binding [relative units] (relative units) worked out at 3.5.
With B15, the Binding [relative units] (relative units) worked out at 3.31.
With B16, the Binding [relative units] (relative units) was 2.97.
Turning to B17, the Binding [relative units] (relative units) was 0.044.
B18: the Binding [relative units] (relative units) was 0.041.

The target of the next experiment is mouse CD98hc ectodomain (recombinant) (mouse) (UniProt P10852). In words: ELISA, purified VNAR-Fc titrated on plate-coated CD98hc (1 ug/mL).
Take B3: the EC50 was found to be 72 nM.
Consider B5, for which the EC50 is 3860 nM.
On to B11, for which the EC50 was determined as 819 nM.
The same measure, in the same setting: for B13 the value was 504 nM; for B14, 190 nM.
On to B15, for which the EC50 turned out to be 86 nM.

In a further experiment the target is human CD98hc ectodomain (recombinant) (human) (UniProt P08195). The description is as above.
Sequence of human CD98hc ectodomain (recombinant) (human) (P08195 206-630): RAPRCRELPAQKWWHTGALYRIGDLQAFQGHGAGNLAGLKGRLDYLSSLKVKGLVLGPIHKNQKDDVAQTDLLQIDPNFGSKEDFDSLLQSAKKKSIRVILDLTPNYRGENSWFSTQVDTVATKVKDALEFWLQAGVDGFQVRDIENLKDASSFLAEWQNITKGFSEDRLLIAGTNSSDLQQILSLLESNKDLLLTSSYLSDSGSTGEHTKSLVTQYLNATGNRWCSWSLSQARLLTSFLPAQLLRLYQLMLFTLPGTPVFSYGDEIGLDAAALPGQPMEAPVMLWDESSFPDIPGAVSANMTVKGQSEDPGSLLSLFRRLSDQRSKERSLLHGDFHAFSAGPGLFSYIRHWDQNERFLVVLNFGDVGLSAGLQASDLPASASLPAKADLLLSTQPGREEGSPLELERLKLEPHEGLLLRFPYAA
Take B3: the concentration for a half-maximal effect (EC50) came out at 12 nM.
On the same count and under the same terms, for B5 the value was 3 nM; for B7, 107 nM.
Take B11: the EC50 came out at 56 nM.
Take B13: the EC50 stood at 6 nM.
On the same count and under the same terms, for B14 the value was 28 nM; for B15, 6 nM.

For the origin of these results see US20220177597A1 (OSSIANIX, published 2022).
